The values that follow come from US20210380679A1 (INHIBRX BIOSCIENCES, published 2021).

For assay [1], the target named is T1, CD3 on the surface of T cells (human, UniProt P07766 23-207).
T1 construct: whole, on cells; multi-chain complex; also called CD3 epsilon
Description: flow cytometry, construct titrated on isolated primary T cells, fluorophore-conjugated anti-human IgG Fc secondary. The procedure: (§1) Binding of exemplary multispecific polypeptide constructs of the disclosure containing an antigen-binding domain directed against DLL3 to CD3 on the surface of primary T cells and to DLL3 expressing cells (SHP-77) was assessed by flow cytometry. […] These binding assays were conducted by flow cytometry, wherein bound constructs were detected using a fluorophore-conjugated anti-human IgG Fc secondary antibody.

Assay [2] concerns the target T2, human DLL3 (Delta-like ligand 3) (human, UniProt Q9NYJ7 27-618).
T2 construct: endogenous on SHP-77 cells; also called cell-surface DLL3
T2 sequence: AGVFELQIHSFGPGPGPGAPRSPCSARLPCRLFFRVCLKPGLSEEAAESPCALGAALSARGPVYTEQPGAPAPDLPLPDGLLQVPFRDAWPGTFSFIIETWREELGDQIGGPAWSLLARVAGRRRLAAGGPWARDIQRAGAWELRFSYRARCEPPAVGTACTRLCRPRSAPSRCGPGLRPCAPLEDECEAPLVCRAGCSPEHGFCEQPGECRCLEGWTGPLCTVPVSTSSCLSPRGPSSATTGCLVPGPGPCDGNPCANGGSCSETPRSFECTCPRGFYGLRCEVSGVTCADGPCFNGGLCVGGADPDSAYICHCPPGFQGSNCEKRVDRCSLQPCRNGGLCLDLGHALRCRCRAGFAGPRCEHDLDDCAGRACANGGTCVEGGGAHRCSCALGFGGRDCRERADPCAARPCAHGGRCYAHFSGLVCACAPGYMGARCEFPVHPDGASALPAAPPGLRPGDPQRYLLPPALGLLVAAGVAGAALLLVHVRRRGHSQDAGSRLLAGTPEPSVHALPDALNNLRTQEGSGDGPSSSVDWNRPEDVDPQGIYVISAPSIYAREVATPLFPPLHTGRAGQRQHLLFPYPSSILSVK
Description: flow cytometry, construct titrated on SHP-77 cells (DLL3 positive), fluorophore-conjugated anti-human IgG Fc secondary. Here is the method:
as §1

The target of assay [3] is T2, human DLL3 (Delta-like ligand 3). Description: flow cytometry of secreted sdAb-Fc on SHP-77 cells.

T1 sequence (P07766 23-207): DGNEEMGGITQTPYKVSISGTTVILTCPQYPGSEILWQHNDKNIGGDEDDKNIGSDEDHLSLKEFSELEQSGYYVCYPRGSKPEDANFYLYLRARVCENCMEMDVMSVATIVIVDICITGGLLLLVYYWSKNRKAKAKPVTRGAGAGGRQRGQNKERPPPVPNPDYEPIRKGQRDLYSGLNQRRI

B1: cx5801 (bispecific antibody)
chain 1: DKTHTCPPCPAPGGPSVFLFPPKPKDTLMISRTPEVTCVVVDVSHEDPEVKFNWYVDGVEVHNAKTKPREEQYNSTYRVVSVLTVLHQDWLNGKEYKCKVSNKALPAPIEKTISKAKGQPREPQVYTLPPCRDELTKNQVSLWCLVKGFYPSDIAVEWESNGQPENNYKTTPPVLDSDGSFFLYSKLTVDKSRWQQGNVFSCSVMHEALHNHYTQKSLSLSPTGGGGGSGGGGGSGGGGGSEVQLVESGGGLVQPGGSLRLSCAASGFTFNTYAMNWVRQAPGKCLEWVARIRSKYNNYATYYADSVKGRFTISRDDAKNTLYLQMSSLRAEDTAVYYCVRHGNFGNSYVSWFAYWGQGTLVTVKPEVQLVESGGGEVQPGGSLRLSCGPSEIITSDKSMGWVRQAPGKQRNLVAGISNVGSTNYAQSVKGRFTISRDNAKNTVYLQMSSLRAEDTAVYYCYARDFENEYWGQGTLVTVKP
chain 2: DKTHTCPPCPAPGGPSVFLFPPKPKDTLMISRTPEVTCVVVDVSHEDPEVKFNWYVDGVEVHNAKTKPREEQYNSTYRVVSVLTVLHQDWLNGKEYKCKVSNKALPAPIEKTISKAKGQPREPQVCTLPPSRDELTKNQVSLSCAVKGFYPSDIAVEWESNGQPENNYKTTPPVLDSDGSFFLVSKLTVDKSRWQQGNVFSCSVMHEALHNRYTQKSLSLSPTGGGGGSGGGGGSGGGGGSQAVVTQEPSLTVSPGGTVTLTCGSSTGAVTTSNYANWVQQKPGQAFRGLIGGTNKRAPGVPARFSGSLLGGKAALTISGAQPEDEADYYCALWYSNHWVFGCGTKLEIKEVQLLESGGGEVQPGGSLRLSCAASGFSFSINAMGWYRQAPGKRREFVAAIESGRNTVYAESVKGRFTISRDNAKNTVYLQMSSLRAEDTAVYYCGLLKGNRVVSPSVAYWGQGTLVTVKP
notes: monovalent for DLL3; junction linkers not placed
Turning to B1, the binding result in assay [1] is on record as “no binding (tested: about 67 nM)”; in assay [2] it was “binds”.

B2: 6A1 (Fc fusion)
VHH: QVQLVQSGGGLVQAGGSLRLSCAASGFSLDDYTIGWFRQAPGKEREGVSCISSSGGSTVHADSVKGRFTISRDNAKNTVWLQMNSLKPEDTAVYYCATWCGVATMTEDLPFDYWGQGTLVTVKP
notes: tested as VHH-human Fc; Fc not specified
As to B2, the binding result in assay [3] is reported as “binds”.
